Data from paper doi:10.1101/2022.01.11.475808, “Hypoxia Dynamically Regulates DBC1 Ubiquitination and Stability by SIAH2 and OTUD5 in Breast Cancer Progression” (bioRxiv, 2022).

Legend:
[1] = biological target: T1, N-terminal half of His-DBC1 (1-461) (human, UniProt Q8N163 1-461); assay: pull-down; GST-SIAH2 and His-DBC1 proteins generated in E. coli, incubated in vitro overnight, then GST beads for 2 h at 4 °C; conditions: both partners purified
T1 construct: source: E. coli, bacterially expressed

[2] = biological target: T2, His-DBC1 (human, UniProt Q8N163 1-923); assay: as above; conditions: both partners purified
T2 construct: Deleted in Breast Cancer 1 (DBC1, CCAR2), human, bacterially expressed as His-DBC1; also called His-tagged DBC1; source: E. coli BL21, purified
T2 sequence (Q8N163 whole entry): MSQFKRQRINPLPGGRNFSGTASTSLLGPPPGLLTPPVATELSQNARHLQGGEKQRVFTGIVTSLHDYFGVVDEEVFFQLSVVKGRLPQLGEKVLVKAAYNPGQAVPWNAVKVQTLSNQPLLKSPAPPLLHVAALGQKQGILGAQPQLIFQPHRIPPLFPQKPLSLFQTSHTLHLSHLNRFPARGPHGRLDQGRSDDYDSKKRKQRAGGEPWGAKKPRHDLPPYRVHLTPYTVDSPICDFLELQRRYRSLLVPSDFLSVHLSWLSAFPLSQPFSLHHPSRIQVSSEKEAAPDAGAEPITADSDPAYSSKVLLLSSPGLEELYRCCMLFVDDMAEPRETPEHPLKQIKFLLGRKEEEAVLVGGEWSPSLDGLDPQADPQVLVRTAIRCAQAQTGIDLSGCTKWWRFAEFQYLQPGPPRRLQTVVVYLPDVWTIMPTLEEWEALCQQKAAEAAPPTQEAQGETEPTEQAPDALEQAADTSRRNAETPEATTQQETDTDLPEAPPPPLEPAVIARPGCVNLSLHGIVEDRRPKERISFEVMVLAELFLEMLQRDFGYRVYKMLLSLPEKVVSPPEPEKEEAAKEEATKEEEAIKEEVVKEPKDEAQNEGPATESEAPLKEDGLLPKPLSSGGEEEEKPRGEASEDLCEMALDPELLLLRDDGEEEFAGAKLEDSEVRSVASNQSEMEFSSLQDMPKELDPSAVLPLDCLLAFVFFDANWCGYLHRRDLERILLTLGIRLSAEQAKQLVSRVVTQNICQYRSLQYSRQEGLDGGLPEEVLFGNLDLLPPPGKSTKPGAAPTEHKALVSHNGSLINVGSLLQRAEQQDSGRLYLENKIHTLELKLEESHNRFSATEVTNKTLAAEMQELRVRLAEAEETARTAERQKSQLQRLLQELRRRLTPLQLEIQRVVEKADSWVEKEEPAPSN

T1 sequence (Q8N163 1-461): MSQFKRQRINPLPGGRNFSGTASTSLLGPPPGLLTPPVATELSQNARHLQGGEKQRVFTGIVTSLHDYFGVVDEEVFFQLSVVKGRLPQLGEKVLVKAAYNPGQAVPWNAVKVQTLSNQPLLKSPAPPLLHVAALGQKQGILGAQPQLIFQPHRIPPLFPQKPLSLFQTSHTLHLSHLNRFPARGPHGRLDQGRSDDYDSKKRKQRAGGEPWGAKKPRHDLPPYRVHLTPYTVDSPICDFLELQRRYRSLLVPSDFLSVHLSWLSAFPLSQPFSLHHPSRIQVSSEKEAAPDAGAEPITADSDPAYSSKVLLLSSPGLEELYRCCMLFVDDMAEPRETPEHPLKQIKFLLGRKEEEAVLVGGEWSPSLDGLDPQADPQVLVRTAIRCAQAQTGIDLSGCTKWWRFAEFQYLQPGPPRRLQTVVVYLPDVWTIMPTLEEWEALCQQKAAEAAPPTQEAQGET

B1: GST-SIAH2 (enzyme, human, UniProt O43255 1-324, looked up)
chain: MSRPSSTGPSANKPCSKQPPPQPQHTPSPAAPPAAATISAAGPGSSAVPAAAAVISGPGGGGGAGPVSPQHHELTSLFECPVCFDYVLPPILQCQAGHLVCNQCRQKLSCCPTCRGALTPSIRNLAMEKVASAVLFPCKYATTGCSLTLHHTEKPEHEDICEYRPYSCPCPGASCKWQGSLEAVMSHLMHAHKSITTLQGEDIVFLATDINLPGAVDWVMMQSCFGHHFMLVLEKQEKYEGHQQFFAIVLLIGTRKQAENFAYRLELNGNRRRLTWEATPRSIHDGVAAAIMNSDCLVFDTAIAHLFADNGNLGINVTISTCCP
notes: E3 ubiquitin ligase SIAH2, human, bacterially expressed as GST-SIAH2; also called purified glutathione S-transferase (GST) SIAH2; source: E. coli BL21, purified
B1: binds [1]; binds [2].
